Assay results: patent publication US20240132578A1
Numbering of substitutions follows the chain as printed.

Columns and labels:
Test in all cases: cell-based or functional assay
[1] = target: HIV-1 92RW020 envelope glycoprotein (Env), on pseudovirus (HIV-1 isolate 92RW020 (clade A))
[2] = target: HIV-1 Env of pseudovirus PVO.4 (HIV-1)
[3] = target: HIV-1 Env of pseudovirus CAP45 (HIV-1)
[4] = target: HIV-1 Env of pseudovirus ZM249 (HIV-1)
[5] = target: HIV-1 Env of pseudovirus TR0.11 (HIV-1)
[6] = target: HIV-1 Env of pseudovirus ZM233 (HIV-1)
[7] = target: HIV-1 Env of pseudovirus DU422 (HIV-1)
[8] = target: Envelope protein of control pseudovirus MuLV (MuLV)
[9] = target: HIV-1 Env of pseudovirus REJ04541 (HIV-1)
[10] = target: HIV-1 Env of pseudovirus Du172 (HIV-1)
[11] = target: HIV-1 Env of pseudovirus CAAN (HIV-1)
[12] = target: HIV-1 Env of pseudovirus AC10 (HIV-1)
[13] = target: HIV-1 Env of pseudovirus DU156 (HIV-1)
[14] = target: HIV-1 ADA envelope glycoprotein (Env), on pseudovirus (HIV-1 isolate ADA)
[15] = target: HIV-1 Env of pseudovirus ZM214 (HIV-1)
[16] = target: HIV-1 JR-FL Env E168K, on pseudovirus (HIV-1 isolate JR-FL (clade B))
[17] = target: HIV-1 Env of pseudovirus THRO.18 (HIV-1)
[18] = target: HIV-1 CMU02 envelope glycoprotein (Env) on pseudovirus (HIV-1)
[19] = target: HIV-1 APV17 envelope glycoprotein (Env) on pseudovirus (HIV-1)
[20] = target: HIV-1 NL43 envelope glycoprotein (Env) on pseudovirus (HIV-1)
[21] = target: HIV-1 93UG077 envelope glycoprotein (Env) on pseudovirus (HIV-1)
[22] = target: HIV-1 MGRM-AG-005 envelope glycoprotein (Env) on pseudovirus (HIV-1)
[23] = target: HIV-1 92TH021 envelope glycoprotein (Env) on pseudovirus (HIV-1)
[24] = target: HIV-1 92BR020 envelope glycoprotein (Env) on pseudovirus (HIV-1)
[25] = target: aMLV envelope protein on pseudovirus (negative control virus)
[26] = target: HIV-1 MGRM-D-018 envelope glycoprotein (Env) on pseudovirus (HIV-1)
[27] = target: HIV-1 92RW020 envelope glycoprotein (Env) on pseudovirus (HIV-1)
[28] = target: HIV-1 JRCSF envelope glycoprotein (Env) on pseudovirus (HIV-1) (UniProt P20871)
[29] = target: HIV-1 MGRM-C-028 envelope glycoprotein (Env) on pseudovirus (HIV-1)
[30] = target: HIV-1 MGRM-A-010 envelope glycoprotein (Env) on pseudovirus (HIV-1)
[31] = target: HIV-1 92UG005 envelope glycoprotein (Env) on pseudovirus (HIV-1)
[32] = target: HIV-1 MGRM-D-001 envelope glycoprotein (Env) on pseudovirus (HIV-1)
[33] = target: HIV-1 MGRM-C-026 envelope glycoprotein (Env) on pseudovirus (HIV-1)
[34] = target: HIV-1 93IN905 envelope glycoprotein (Env) on pseudovirus (HIV-1)
[35] = target: HIV-1 92UG024 envelope glycoprotein (Env) on pseudovirus (HIV-1)
[36] = target: HIV-1 APV6 envelope glycoprotein (Env) on pseudovirus (HIV-1)
[37] = target: HIV-1 APV13 envelope glycoprotein (Env) on pseudovirus (HIV-1)
[38] = target: HIV-1 JRFL envelope glycoprotein (Env) on pseudovirus (HIV-1)
[39] = target: HIV-1 MGRM-C-027 envelope glycoprotein (Env) on pseudovirus (HIV-1)
[40] = target: HIV-1 94UG103 envelope glycoprotein (Env) on pseudovirus (HIV-1)

B1: 1469_M23 (PG16) (TCN-118) (antibody, V domains shown)
VH: QEKLVESGGGVVQPGGSLRLSCLASGFTFHKYGMHWVRQAPGKGLEWVALISDDGMRKYHSDSMWGRVTISRDNSKNTLYLQFSSLKVEDTAMFFCAREAGGPIWHDDVKYYDFNDGYYNYHYMDVWGKGTTVTVSS
VL: QSALTQPASVSGSPGQTITISCNGTRSDVGGFDSVSWYQQSPGRAPKVMVFDVSHRPSGISNRFSGSKSGNTASLTISGLHIEDEGDYFCSSLTDRSHRIFGGGTKLTVLG
IC50 (ug/ml), pseudovirus neutralization, TZM-bl assay [1]: 0.05 µg/mL | IC50, pseudovirus neutralization (TZM-bl assay) [2]: 21.2 µg/mL | IC50, pseudovirus neutralization (TZM-bl assay) [3]: < 0.01 µg/mL | IC50, pseudovirus neutralization (TZM-bl assay) [4]: < 0.01 µg/mL | IC50, pseudovirus neutralization (TZM-bl assay) [5]: 7.52 µg/mL | IC50, pseudovirus neutralization (TZM-bl assay) [6]: < 0.01 µg/mL | IC50, pseudovirus neutralization (TZM-bl assay) [7]: 0.97 µg/mL | IC50, pseudovirus neutralization (TZM-bl assay), control virus [8]: > 25 µg/mL | IC50, pseudovirus neutralization (TZM-bl assay) [9]: 0.39 µg/mL | IC50, pseudovirus neutralization (TZM-bl assay) [10]: < 0.01 µg/mL | IC50, pseudovirus neutralization (TZM-bl assay) [11]: 17.7 µg/mL | IC50, pseudovirus neutralization (TZM-bl assay) [12]: < 0.01 µg/mL | IC50, pseudovirus neutralization (TZM-bl assay) [13]: < 0.01 µg/mL | IC50 (ug/ml), pseudovirus neutralization, TZM-bl assay [14]: 0.005 µg/mL | IC50, pseudovirus neutralization (TZM-bl assay) [15]: > 25 µg/mL | IC50 (ug/ml), pseudovirus neutralization, TZM-bl assay [16]: 0.005 µg/mL | IC50, pseudovirus neutralization (TZM-bl assay) [17]: 7.01 µg/mL

B2: 1489_I13 (PG16) (TCN-120) (antibody, V domains shown)
VH: B1 VH with K3Q, V5L, D62N
VL: B1 VL with R26S, R44K, L107V
IC50 (ug/ml), pseudovirus neutralization, TZM-bl assay [1]: 0.03 µg/mL | IC50, pseudovirus neutralization (TZM-bl assay) [2]: 20.6 µg/mL | IC50, pseudovirus neutralization (TZM-bl assay) [3]: < 0.01 µg/mL | IC50, pseudovirus neutralization (TZM-bl assay) [4]: < 0.01 µg/mL | IC50, pseudovirus neutralization (TZM-bl assay) [5]: 10.9 µg/mL | IC50, pseudovirus neutralization (TZM-bl assay) [6]: < 0.01 µg/mL | IC50, pseudovirus neutralization (TZM-bl assay) [7]: 1.87 µg/mL | IC50, pseudovirus neutralization (TZM-bl assay), control virus [8]: > 25 µg/mL | IC50, pseudovirus neutralization (TZM-bl assay) [9]: 0.34 µg/mL | IC50, pseudovirus neutralization (TZM-bl assay) [10]: < 0.01 µg/mL | IC50, pseudovirus neutralization (TZM-bl assay) [11]: 24.9 µg/mL | IC50, pseudovirus neutralization (TZM-bl assay) [12]: < 0.01 µg/mL | IC50, pseudovirus neutralization (TZM-bl assay) [13]: < 0.01 µg/mL | IC50 (ug/ml), pseudovirus neutralization, TZM-bl assay [14]: 0.008 µg/mL | IC50, pseudovirus neutralization (TZM-bl assay) [15]: > 25 µg/mL | IC50 (ug/ml), pseudovirus neutralization, TZM-bl assay [16]: 0.005 µg/mL | IC50, pseudovirus neutralization (TZM-bl assay) [17]: 7.41 µg/mL

B3: 5147_N06 (PGT-130) human monoclonal antibody (antibody, V domains shown)
VH: QVQLQESGPGLVKPAETLSLTCSVSGESINTGHYYWGWVRQVPGKGLEWIGHIHYTTAVLHNPSLKSRLTIKIYTLRNQITLRLSNVTAADTAVYHCVRSGGDILYYYEWQKPHWFSPWGPGIHVTVSS
VL: QSALTQPPSASGSLGQSVTISCNGTSSDIGGWNFVSWYQQFPGRAPRLIIFEVNKRPSGVPGRFSGSKSGNSASLTVSGLQSDDEGQYFCSSLFGRWDVVFGGGTKLTVL
IC50, neutralization of pseudovirus [18]: > 10 µg/mL | IC80, neutralization of pseudovirus [18]: > 10 µg/mL | IC90 (neutralization of pseudovirus) [18]: > 10 µg/mL | IC95, neutralization of pseudovirus [18]: > 10 µg/mL | IC50, neutralization of pseudovirus [19]: > 10 µg/mL | IC80, neutralization of pseudovirus [19]: > 10 µg/mL | IC90 (neutralization of pseudovirus) [19]: > 10 µg/mL | IC95, neutralization of pseudovirus [19]: > 10 µg/mL | IC50, neutralization of pseudovirus [20]: > 10 µg/mL | IC80, neutralization of pseudovirus [20]: > 10 µg/mL | IC90 (neutralization of pseudovirus) [20]: > 10 µg/mL | IC95, neutralization of pseudovirus [20]: > 10 µg/mL | IC50, neutralization of pseudovirus [21]: > 10 µg/mL | IC80, neutralization of pseudovirus [21]: > 10 µg/mL | IC90 (neutralization of pseudovirus) [21]: > 10 µg/mL | IC95, neutralization of pseudovirus [21]: > 10 µg/mL | IC50, neutralization of pseudovirus [22]: 0.947 µg/mL | IC80, neutralization of pseudovirus [22]: > 10 µg/mL | IC90 (neutralization of pseudovirus) [22]: > 10 µg/mL | IC95, neutralization of pseudovirus [22]: > 10 µg/mL | IC50, neutralization of pseudovirus [23]: 0.0082 µg/mL | IC80, neutralization of pseudovirus [23]: 0.0261 µg/mL | IC90 (neutralization of pseudovirus) [23]: 0.0513 µg/mL | IC95, neutralization of pseudovirus [23]: 0.0963 µg/mL | IC50, neutralization of pseudovirus [24]: 1.12 µg/mL | IC80, neutralization of pseudovirus [24]: > 10 µg/mL | IC90 (neutralization of pseudovirus) [24]: > 10 µg/mL | IC95, neutralization of pseudovirus [24]: > 10 µg/mL | IC50, neutralization of pseudovirus [25]: > 10 µg/mL | IC80, neutralization of pseudovirus [25]: > 10 µg/mL | IC90 (neutralization of pseudovirus) [25]: > 10 µg/mL | IC95, neutralization of pseudovirus [25]: > 10 µg/mL | IC50, neutralization of pseudovirus [26]: 0.0378 µg/mL | IC80, neutralization of pseudovirus [26]: 0.289 µg/mL | IC90 (neutralization of pseudovirus) [26]: 2.31 µg/mL | IC95, neutralization of pseudovirus [26]: > 10 µg/mL | IC50, neutralization of pseudovirus [27]: 0.014 µg/mL | IC80, neutralization of pseudovirus [27]: 0.508 µg/mL | IC90 (neutralization of pseudovirus) [27]: 3.68 µg/mL | IC95, neutralization of pseudovirus [27]: > 10 µg/mL | IC50, neutralization of pseudovirus [28]: 0.0089 µg/mL | IC80, neutralization of pseudovirus [28]: 0.0317 µg/mL | IC90 (neutralization of pseudovirus) [28]: 0.0669 µg/mL | IC95, neutralization of pseudovirus [28]: 0.134 µg/mL | IC50, neutralization of pseudovirus [29]: > 10 µg/mL | IC80, neutralization of pseudovirus [29]: > 10 µg/mL | IC90 (neutralization of pseudovirus) [29]: > 10 µg/mL | IC95, neutralization of pseudovirus [29]: > 10 µg/mL | IC50, neutralization of pseudovirus [30]: 0.0054 µg/mL | IC80, neutralization of pseudovirus [30]: 0.0251 µg/mL | IC90 (neutralization of pseudovirus) [30]: 0.0643 µg/mL | IC95, neutralization of pseudovirus [30]: 0.164 µg/mL | IC50, neutralization of pseudovirus [31]: 0.474 µg/mL | IC80, neutralization of pseudovirus [31]: > 10 µg/mL | IC90 (neutralization of pseudovirus) [31]: > 10 µg/mL | IC95, neutralization of pseudovirus [31]: > 10 µg/mL | IC50, neutralization of pseudovirus [32]: > 10 µg/mL | IC80, neutralization of pseudovirus [32]: > 10 µg/mL | IC90 (neutralization of pseudovirus) [32]: > 10 µg/mL | IC95, neutralization of pseudovirus [32]: > 10 µg/mL | IC50, neutralization of pseudovirus [33]: 0.0173 µg/mL | IC80, neutralization of pseudovirus [33]: 0.263 µg/mL | IC90 (neutralization of pseudovirus) [33]: 1.32 µg/mL | IC95, neutralization of pseudovirus [33]: 6.13 µg/mL | IC50, neutralization of pseudovirus [34]: 0.0182 µg/mL | IC80, neutralization of pseudovirus [34]: 0.272 µg/mL | IC90 (neutralization of pseudovirus) [34]: 1.31 µg/mL | IC95, neutralization of pseudovirus [34]: 5.48 µg/mL | IC50, neutralization of pseudovirus [35]: > 10 µg/mL | IC80, neutralization of pseudovirus [35]: > 10 µg/mL | IC90 (neutralization of pseudovirus) [35]: > 10 µg/mL | IC95, neutralization of pseudovirus [35]: > 10 µg/mL | IC50, neutralization of pseudovirus [36]: > 10 µg/mL | IC80, neutralization of pseudovirus [36]: > 10 µg/mL | IC90 (neutralization of pseudovirus) [36]: > 10 µg/mL | IC95, neutralization of pseudovirus [36]: > 10 µg/mL | IC50, neutralization of pseudovirus [37]: 0.0345 µg/mL | IC80, neutralization of pseudovirus [37]: 0.573 µg/mL | IC90 (neutralization of pseudovirus) [37]: 2.88 µg/mL | IC95, neutralization of pseudovirus [37]: > 10 µg/mL | IC50, neutralization of pseudovirus [38]: 0.0346 µg/mL | IC80, neutralization of pseudovirus [38]: 0.751 µg/mL | IC90 (neutralization of pseudovirus) [38]: 5.72 µg/mL | IC95, neutralization of pseudovirus [38]: > 10 µg/mL | IC50, neutralization of pseudovirus [39]: 0.0052 µg/mL | IC80, neutralization of pseudovirus [39]: 0.0318 µg/mL | IC90 (neutralization of pseudovirus) [39]: 0.106 µg/mL | IC95, neutralization of pseudovirus [39]: 0.464 µg/mL | IC50, neutralization of pseudovirus [40]: 0.635 µg/mL | IC80, neutralization of pseudovirus [40]: > 10 µg/mL | IC90 (neutralization of pseudovirus) [40]: > 10 µg/mL | IC95, neutralization of pseudovirus [40]: > 10 µg/mL
